# Biological target: gC1qR (C1QBP) on human T cells (human) (UniProt Q07021)
# Assay: cell-based or functional assay
substance,measurement,value
HCV core protein (Prospec HCV-011),PLA2G1B enzymatic activity on the membrane of CD4 T cells ([3H] arachidonic acid release),26 Fold
Staphylococcus aureus protein A (Sigma P6031),PLA2G1B enzymatic activity on the membrane of CD4 T cells ([3H] arachidonic acid release),3 Fold

# Reference: patent EP4115900A1
